± gives the standard deviation of the averaged measurements.
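Also: ATP exposure 15 min at 22 °C before imaging.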

The subject of this data set is ATP. As to the kind of experiment: switch fluorescence ratio, 500 uM ATP over buffer (Cy3 cluster intensity, sum of 5 cycles each) (fold (ratio)); higher = stronger signal-on switching upon ATP binding; sequences stand for … in TCGTCGGCAGCGTCAGATGTGTATAAGAGACAGTTTTTTTTTTTTTTTTTTTTTTTTT…TC. The conditions noted are these: aptamer strand: ATP DNA aptamer (quencher-CACCTGGGGGAGTATTGCGGAGGAAGG + anchor), 100 nM annealed; ATP concentration: 500 uM. An outline of the steps:
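Cy3-labelled switching-strand clusters on a modified Illumina MiSeq flow-cell were annealed to 100 nM quencher-labelled ATP aptamer, imaged in selection buffer, then imaged after 15 min with 500 uM ATP at 22 °C. Five buffer/ATP cycles ran, with NaOH stripping and re-annealing between them. The fluorescence ratio is summed target-cycle over summed buffer-cycle Cy3 intensity per cluster, averaged per switch-domain sequence. Clusters outside 100-1000 RFU were excluded.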
TTGCGGAGGA: the switch fluorescence ratio came to 1.01 ± 0.043.
With AAGTAAATTT, the switch fluorescence ratio was determined as 1.0226 ± 0.0004.
The result for AATGTTTTTG reads 1.02 ± 0.046; that for TAAGGGAACC, 1.01 ± 0.044; that for TTTTGGCTTT, 1 ± 0.034.
In the case of AGGTTAGTCG, the switch fluorescence ratio stood at 1.01 ± 0.032.
For ATCAGGATCG, the switch fluorescence ratio is 1.01 ± 0.014.
The result for GCGGCAAGGA reads 1.04 ± 0.017; that for GCGCGGAACG, 0.998 ± 0.047; that for GAAACGGCGG, 1.04 ± 0.055.
For CTCTGATAGC the value was 1.23 ± 0.013; for CATATCGAAA, 1.013 ± 0.0033; for TCGACATTAT, 1.034 ± 0.0055.
The result for GTGCTGGGGG reads 1.02 ± 0.02; that for CGCTGTCAGC, 1.002 ± 0.0037; that for ATTCTTATTT, 0.998 ± 0.028.
Regarding CGTTCGATAT, the switch fluorescence ratio worked out at 1.03 ± 0.03.
The result for TCCATTCCGA reads 1.17 ± 0.13; that for TCATGTTAGG, 0.994 ± 0.0075.
The result for ATTCATTTTG reads 1.019 ± 0.0048.
Consider GGTTTCTTGA, for which the switch fluorescence ratio was 1.02 ± 0.021.
For CCATTTTTTT the value was 0.997 ± 0.042; for ATTGTGTTCC, 1.05 ± 0.0057; for TTATTAGAAG, 0.978 ± 0.012.
For GCGTAATATG the value was 1.16 ± 0.068.
For TTCATTGGGA the value was 1.01 ± 0.025; for GTAGGATTTC, 1.01 ± 0.027; for TTTGAAGTTG, 0.992 ± 0.029.
As for AAAAGGATCT, the switch fluorescence ratio was determined as 1.02 ± 0.029.
For CTTTGCCTGG the value was 0.98 ± 0.026; for GAATTAGCAC, 1.05 ± 0.038.
For TTCGTGTACG the value was 1.02 ± 0.019; for GCTTGGATGT, 1.0207 ± 0.00092.
GGATTCGAAG: the switch fluorescence ratio was determined as 0.9953 ± 0.0071.
The result for TTTGCTTATG reads 0.9924 ± 0.0045; that for AATTGGGTTA, 0.976 ± 0.023; that for CGATATGTTC, 1.01 ± 0.018.
For CGAAGGCTGG the value was 1.0003 ± 0.00038; for GCGCGTGCAC, 0.988 ± 0.042; for TTGTGAGTGT, 1.01 ± 0.034.
The result for TTACCGGATA reads 1.035 ± 0.0092.
Take TTGGACGGGT: the switch fluorescence ratio came to 1.022 ± 0.008.
The result for GCGGGCCGTC reads 1.03 ± 0.023; that for TTTTAACACT, 1.035 ± 0.0085; that for TTAGGGTCAG, 0.997 ± 0.035.
For TGTGGTTAGG the value was 0.993 ± 0.035.
Take TAAGGTTGGG: the switch fluorescence ratio came to 0.993 ± 0.021.
As for ATCTGTACGA, the switch fluorescence ratio amounted to 1.02 ± 0.027.
For the sequence ATAATCATTT, the switch fluorescence ratio was determined as 1.02 ± 0.021.
For ACGACTTTAG the value was 1.022 ± 0.0014; for GGTAAAATTT, 1 ± 0.03.
The result for GGGAACGGCC reads 1.054 ± 0.0036; that for CGGGGCATTG, 1.013 ± 0.0046; that for CAGGCGGCCC, 1.019 ± 0.01.
For CAACTAGTGG the value was 0.978 ± 0.037.
In the case of ATTGTTTGTC, the switch fluorescence ratio stood at 0.996 ± 0.064.
For CGTTAAATTT the value was 0.994 ± 0.033; for AGCGGATTGG, 1.02 ± 0.061.
Turning to AAGTTGATGT, the switch fluorescence ratio was determined as 1 ± 0.017.
With GTGGACTTCG, the switch fluorescence ratio worked out at 1.0178 ± 0.001.
On to TTCCCCCTTT, for which the switch fluorescence ratio amounted to 1.45 ± 0.58.
In the case of CGAAGGGTGG, the switch fluorescence ratio came out at 0.993 ± 0.028.
The result for AGGTCGCGGT reads 0.994 ± 0.025; that for AACCTGCGGA, 1.02 ± 0.011; that for CCTTACCTTG, 1.04 ± 0.041.
As to CGGTGGTTGA, the switch fluorescence ratio came out at 1.01 ± 0.053.
In the case of GTTTATGGAC, the switch fluorescence ratio amounted to 1.02 ± 0.011.
The result for TTTGGATTAG reads 0.9746 ± 0.0037.
The result for TTCATTTGGT reads 0.983 ± 0.025; that for AGGAAGGGT, 0.9978 ± 0.0079.
The result for CGGGAGTTGT reads 0.99 ± 0.042; that for TAGTTTTCAT, 1.021 ± 0.01.
For AAGCCAAATG, the switch fluorescence ratio is 0.994 ± 0.029.
The result for TTAAGGTCGT reads 0.995 ± 0.034.
For TAGTTTTTCG the value was 1 ± 0.025; for TACTGGTGAC, 1.06 ± 0.012.
The result for CGGGTGATTC reads 1.04 ± 0.021; that for GATGCTAGAC, 3 ± 0.11.
Turning to TGCAGGTAGG, the switch fluorescence ratio is 1.04 ± 0.036.

These data come from the supplement of paper PMC10126150.
